Legend:
[1] = biological target: T1, Human glucagon receptor extracellular domain human Fc fusion protein (human, UniProt P47871 26-136, limits assumed); test: SPR (Biacore T200), receptor-Fc captured on anti-human Fc chip, mAb5 Fab as analyte, 37° C.
T1 construct: also called glucagon receptor Fc fusion protein; not shown: human Fc
Protocol: (§1) An anti-human Fc sensor chip was prepared by activating all flow cells of a Biacore CM4 sensor chip with a 1:1 (v/v) mixture of 400 mM EDC and 100 mM NHS for 7 minutes, at a flow rate of 10 μL/min. Goat anti-human Fc antibody (Southern Biotech) was diluted to 50 μg/mL in 10 mM sodium acetate pH 5.0 and injected on all flow cells for 7 minutes at 20 μL/min. All flow cells were blocked with 100 mM ethylenediamine in 150 mM borate buffer pH 8.5 for 7 minutes at 10 μL/min. The running buffer for this immobilization procedure was 10 mM HEPES, 150 mM NaCl, 0.05% (v/v) TWEEN® 20, pH 7.4.
(§2) The following kinetics experiments were performed at 25° C. and 37° C. using a running buffer of 10 mM HEPES, 150 mM NaCl, 0.05% (v/v) TWEEN® 20, pH 7.4, 1 mg/mL BSA.
(§3) All experiments were performed on a Biacore™ T200 surface Plasmon resonance biosensor (GE Lifesciences, Piscataway N.J.). Human and cynomolgus monkey (cyno) glucagon receptor extracellular domain human Fc fusion proteins were captured onto downstream flow cells (flow cells 2, 3, respectively) at 2 μg/mL at a flow rate of 10 μL/min for 3 minutes. Flow cell 1 was used as a blank reference surface. Following capture of glucagon receptor Fc fusion proteins, analyte (buffer, or mAb5 Fab) was injected at 30 μL/min on all flow cells for two minutes. Multiple mAb5 Fab analyte concentrations were tested. The mAb5 Fab analyte concentrations were 0.16, 0.8, 4, 20 and 100 nM. After the analyte injection, dissociation was monitored for 10 minutes (for the 20 nM and 100 nM mAb5 Fab analyte samples) or 30 seconds (for the 0.16, 0.8, and 4 nM mAb5 Fab analyte samples). Dissociation was monitored for 30 seconds and 10 minutes for buffer analyte cycles. Following analyte binding and dissociation all flow cells were regenerated with four 1-minute injections of 75 mM phosphoric acid. The sensorgram data were double referenced prior to curve fitting (double referencing as described in Myszka, D. G., 1999, J. Mol. Recognit., 12:279-284. The double referenced sensorgrams were fit globally to a simple 1:1 Langmuir with mass transport binding model using the Biacore™ T200 evaluation software. The binding affinity data for anti-glucagon receptor antagonist antibody mAb5 binding to human and cyno glucagon receptor are shown below in Table 4.

[2] = biological target: T2, Cynomolgus monkey (cyno) glucagon receptor extracellular domain human Fc fusion protein (cynomolgus monkey); test: as above
T2 construct: extracellular domain
Protocol: as §1, §2, §3

[3] = biological target: T1, Human glucagon receptor extracellular …; test: SPR (Biacore T200), receptor-Fc captured on anti-human Fc chip, mAb5 Fab as analyte, 25° C.
Protocol: as §1, §2, §3

[4] = biological target: T2, Cynomolgus monkey (cyno) glucagon …; test: as above
Protocol: as §1, §2, §3

[5] = biological target: T2, Cynomolgus monkey (cyno) glucagon …; test: SPR (Biacore T200), receptor-Fc captured on anti-human Fc chip, mAb5 Fab as analyte, 25° C.; dissociation too slow, limit reported
Protocol: as §1, §2
(§4) All experiments were performed on a Biacore™ T200 surface Plasmon resonance biosensor (GE Lifesciences, Piscataway N.J.). Human and cynomolgus monkey (cyno) glucagon receptor extracellular domain human Fc fusion proteins were captured onto downstream flow cells (flow cells 2, 3, respectively) at 2 μg/mL at a flow rate of 10 μL/min for 3 minutes. […] After the analyte injection, dissociation was monitored for 10 minutes (for the 20 nM and 100 nM mAb5 Fab analyte samples) or 30 seconds (for the 0.16, 0.8, and 4 nM mAb5 Fab analyte samples). Dissociation was monitored for 30 seconds and 10 minutes for buffer analyte cycles. […]

[6] = biological target: T2, Cynomolgus monkey (cyno) glucagon …; test: SPR (Biacore T200), receptor-Fc captured on anti-human Fc chip, mAb5 Fab as analyte, 25° C.; limit reported
Protocol: as §1, §2, §4

T1 sequence (P47871 26-136 limits assumed): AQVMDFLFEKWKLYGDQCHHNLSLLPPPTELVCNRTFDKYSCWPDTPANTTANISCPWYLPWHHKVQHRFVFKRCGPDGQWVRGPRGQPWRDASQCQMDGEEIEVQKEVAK

Kd [1]: 0.75 nM | koff [1]: 0.00049 s⁻¹ | kon [1]: 650000 M⁻¹ s⁻¹ | t1/2 [1]: 24 min | Kd [2]: 0.72 nM | koff [2]: 0.00054 s⁻¹ | kon [2]: 750000 M⁻¹ s⁻¹ | t1/2 [2]: 21 min | Kd [3]: 0.22 nM | koff [3]: 0.0001 s⁻¹ | kon [3]: 460000 M⁻¹ s⁻¹ | t1/2 [3]: 116 min | kon [4]: 500000 M⁻¹ s⁻¹ | koff [5]: < 8.5e-05 s⁻¹ | Kd [6]: < 0.17 nM | t1/2 [6]: > 136 min
B1: mAb5 Fab (Fab, V domains shown)
VH: QVQLVQSGAEVKKPGASVKVSCKASGYTFTDFSVHWVRQAPGQGLEWMGWINTETDETSYADDFKGRVTMTRDTSTSTVYMELSSLRSEDTAVYYCVKSRYWSYGPPDYWGQGTTVTVSS
VL: DIQMTQSPSSLSASVGDRVTITCQASQNIRTAVVWYQQKPGKAPKLLIYLASNRHSGVPSRFSGSGSGTDFTFTISSLQPEDIATYYCLQHWTYPFTFGGGTKVEIK
notes: also called Fab of anti-glucagon receptor antagonist antibody mAb5
